# B1: CFH (fH67) (other)
# chain: TLKPCDYPDIKHGGLYHENMRRPYFPVAVGKYYSYYCDEHFETPSGSYWDHIHCTQDGWSPAVPCLRKCYFPYLENGYNQNYGRKFVQGKSIDVACHPGYALPKAQTTVTCMENGWSPTPRCI
# Target: V1.1
# Experiment: SPR
binder,measurement,value
B1,Kd,3.6 nM

# — patent publication US20220112249A1 (published 2022)
